Results reported in publication PMC4747798.

Target: SH2 domain (143-249) of CSRC (UniProt P12931)
Experiment: ITC

stoichiometry N: 1
Substance: human calmodulin (from UniProt P0DP23 1-149) (natural protein)
